Experimental data from article PMC11481066 (2024).
Substitutions are numbered along the chain they refer to. Numbers in names are those of the source. Read-outs that look alike come from different tables or passages of the source.

Legend:
Experiment in all cases: BLI
[1] = molecular target: T1, SARS-CoV-2 spike protein receptor binding domain, wild-type (Wuhan type) (SARS-CoV-2, UniProt P0DTC2)
[2] = molecular target: T1, SARS-CoV-2 spike protein receptor …; remark: listed apart in the source
[3] = molecular target: T1, SARS-CoV-2 spike protein receptor …; remark: listed apart in the source
[4] = molecular target: T1, SARS-CoV-2 spike protein receptor …; remark: listed apart in the source

B1: ab8 nanobody, wild type (VHH)
VHH: EVQLVESGGGLVQPGGSLRLSCAASGFTFDDYAMSWVRQAPGKGLEWIGRMYNNGRTSYNPSLKSLVTISRDNSKNTLYLQMNSLRAEDTATYYCARDNLGYRPSENLYGMDVWGQGTTVTVSS
- koff [1]: 0.0291 s⁻¹
- Kd [2]: 51.4 nM

B2: ab8 E127W mutant nanobody (VHH)
VHH: B1 VHH with E106W
- koff [1]: 0.0148 s⁻¹
- Kd [2]: 2.18 nM

B3: H11-H4 L106F mutant nanobody (VHH)
VHH: QVQLVESGGGLMQAGGSLRLSCAVSGRTFSTAAMGWFRQAPGKEREFVAAIRWSGGSAYYADSVKGRFTISRDKAKNTVYLQMNSLKYEDTAVYYCAQTHYVSYLFSDYATWPYDYWGQGTQVTVSS
- Kd [3]: 164 nM
- koff [4]: 0.149 s⁻¹

B4: H11-H4 L106W mutant nanobody (VHH)
VHH: B3 VHH with F106W
- Kd [3]: 132 nM
- koff [4]: 0.739 s⁻¹

B5: H11-H4 nanobody, wild type (VHH)
VHH: B3 VHH with F106L
- Kd [3]: 63.6 nM
- koff [4]: 0.0406 s⁻¹

B6: H11-H4 H100Y mutant nanobody (VHH)
VHH: B3 VHH with H100Y, F106L
- Kd [3]: 238 nM
- koff [4]: 0.145 s⁻¹

B7: H11-H4 V102Y mutant nanobody (VHH)
VHH: B3 VHH with V102Y, F106L
- Kd [3]: 180 nM
- koff [4]: 0.543 s⁻¹
